These results are taken from publication PMC12273574, “Biochemical and structural characterization of a GNAT superfamily protein acetyltransferase from Helicobacter pylori” (The Journal of Biological Chemistry, 2025).

Broadly, the Km is the concentration of substrate that gives half-maximal velocity.

Common to all, as to experiment: purified protein
Substrate in data set [1]: NCCCC[C@H](N)C(=O)O
The following applies: 50 μM 14C-ACO, 1-50 mM lysine, 800 nM enzyme, pH 8.0, 30 °C; pH 8.0; 30.0 °C.

Substrate in data set [2]: CC(=O)SCCNC(=O)CCNC(=O)[C@H](O)C(C)(C)COP(=O)(O)OP(=O)(O)OC[C@H]1O[C@@H](n2cnc3c(N)ncnc32)[C@H](O)[C@@H]1OP(=O)(O)O
The settings on record: 50 mM lysine, 5-50 μM 14C-ACO, 800 nM enzyme, pH 8.0, 30 °C; labelled compound; pH 8.0; 30.0 °C.

Substrate in data set [3]: CC(=O)NCCCC[C@H](N)C(=O)O
The settings on record: 14C-ACO, 800 nM enzyme; Nα-amino group acetylated; unit μM as printed beside mM for the Nα-acetyl isomer.

B1: HP0935 (Helicobacter pylori 26695) (protein)
chain: MTIKVFSPKYPTELEEFYAERIADNPLGFIQRLDLLPSISGFVQKLREHGGEFFEMREGNKLIGICGLNPINQTEAELCKFHINSAYQSQGLGQKLYESVEKYAFIKGYTKISLHVSKSQIKACNLYQKLGFVHIKEEDCVVELGEETLIFPTLFMEKILS
B1: the Km in data set [1] worked out at 31310 µM; in data set [2], 21.44 µM; in data set [3], 26.71 µM.
